Results on 17 sequences are retold here after a protein production outcome set (Wang et al. 2014).

The data set in a line: label from the status in PepcDB records.
Regarding “MHNFSFDVDESYAKKNNEILRDAKRLQISALCLGLILGGGAVAVYLFSNGAVWMWMIAIVMVFLALLSFIMIPVIPRQMGNAQTLYDDYELAPAIIAEVNPRDVVLLALVNRNVNPEAKPEWALATRTIVRVGAHERRLGERIPSVAITGRRTVKDQDHWDEISPMPITWGTTDKDIIREAEKTIPHELWAKLEKNRGKLEDVKKTPNNLFKL”, the protein production result is “failed”.
As for “MHNSIMNKVAVIGLGNIATRHRRNLKSLFPNVELLVMSASGRIPTEEISDSDGIVTSIEALIEANVELVIVASPAPFHAQHSIPLIEAGIPTLIEKPVTTTREDANAIKKALNEHGTPVAIGYCLRYLPSAQKLKILLDHKAIGTLYNAHIEIGQYLPDWRPSKNYRECVSANEKLGGGALFELSHELDYAQWLLGPLALQHAILRSSDELDLQVEDMADILTLTESGAVASIHLDFLQRKAHRQCSFIGSEGRIDWDLIQNQLTLTTAAEAKVIYSEPEWDKNQMYLAMVTDFIQMIKQQPHNCIAVTDASFTVDLISQIKQKAY”, the protein production result is reported as “failed”.
With “MHPDTTLILIAAASIVLLVLLVTRLKLHPFLALMVAAAFLGLASGLAPTDAVKTFQKGFGNILGSVGLVVGLGSMLGGLLLNTGGADRIANAFVGRGSTVWLPTSICAAALLIGMPHLFDVSFVMLVPLVFAIAKRTGSHLMRVGLPMAAGLYVSHGFLLPHPSPTLALAIYHGDAGRAILFGFLLAIPTAILSGPLLTSFAMRWFKDPIDITHSPIMTAAGRSDVTTLDNAPRLPVVLLTVLLPPGLMLLRTLLADHVPEGAARAFLDGIGNPIVSLAIAVLFAIWALGVRSGRSLGEIQKLLGKSLAPAAGVILIVGAGGGLKEMLLGTHIGDMIASGAAQWAISPLVLAWVIAALMRIAVGSATVATVTAAGLMAPVQALHPEISPELMTISVATGGLMLSHLNDSGFWLFKEYFQLTVAQTLKSWTLMVSVQSALGLAGVLLIDAVIR”, the protein production entry is reported as “failed”.
“MHPLLRRLDLNLLLVFDALYRHRNVGTAASELAISASAFSHALGRLRQGLDDELFLRQGNRMQPTQRAEHLAAAVAAALRALGEGLEEWRPFVPGQSQRTFVFAATDYTAFALLPPLMNRLQHSAPGVRLRLVNAERKLSVEALASGRIDFALGYDEEHERLPEGIQAHDWFADRYVVVARRDHPRLAGAPTLEGYLAERHAVVTPWNEDSGVIDRLLARSGLRREVAVQLPTVLAALFLAGSTDFLLTAPRHAARALAEAAGLALYPAPFDIPPYVLRLYSHVQHVGRDAHAWMIGQLKGLDISRTG”: the protein production entry was “not failed”.
Regarding “MHQDVLLGGRYRLGAQLGGGSEAYVNEAWDLLSGKTVAVKIFRSTNSLDNAPFRRELEIHGRLRHRNIVRILDSGDTDSRGDGAGVGQDNRHFVVMELVAGKDLRWILQDKPASPEQTAAWMTDVARALAHVHRRGIVHNDIKPGNILVDFASDPGGPGVAKLADFGIALNGRHGVPNSSSGTPHYLSPEEVCGGTSTTASDIYSLGLVALECLTGTKAFPGPPLESMVARTLGEPRIPGTVRRRWSMVLHAMTDPDPAGRPSASQTVGMLRRLSW”, the protein production result was “failed”.
For “MHRGKETSTKPKKPVTRRKDFSASGKGKKRKKRRVHKMKPWQIALICVGAFIAALLAFGLMYVYAKWSKIDTKSIKADDIIINEEVKKNKNVDLGDGYTNVALFGVDSRDGDLGEGNRTDCIIVASLNNKTKEIKMVSVYRDTLLDLSEGTYQKCNAAYSYGGPVLAINMLNMNLDLDIQDYVTVDFGAIADAVDLLGGIEIEVTEEELPYINQYIPETANSAGKAANLLQSAGLQKLDGTQATTYARIRSTAGGDFTRTERQRLVIEKMFEKAKGADIGTLNKIIDKVFPQVSTSFTLPEILKYASAYSEYKLVGNMGFPEDKYTDMLSEIGSVVVPDNLVSNVTKLHEFLFGITGYVPSSTVQTVGSNISYTASAKKSSGTGSQSSYDSGESYNDSGYTDNSGNYEGGNTGGNYDDGSMSGNSGNTGNSGETGGVGGNGSTGDNTGGTTVEPPVVPDGGTDSGGGQTEAPPEGTVQ”, the protein production result is recorded as “failed”.
Regarding “MHRLYRFCLFGMALLSSIAASAAPTDQELIAALYAKVQARQDWQAQARQCPGDNMPARAAIRATQANRCETPEQLGACLQRCEAGDGNDCYWLATTLQQAKGPAEGYEPLYQRACSLGLVSGCTNRAAGMLTADADSQGTRHCAVQTFNKACELDDPWACTMYGFHLSRGIGVAPDADLALKVLDKSCKHGPADPACSGARQLQEDIRNALEAAKR”, the protein production entry is on record as “failed”.
Regarding “MHRVHGTLHASFTIECRNMFKRFFLALIGVGILLSESTQASESPPYSMVLLTENFPPFNMAVDGKNFAQENNIDGIAAEVVREMFKRANIGYSMTLRFPWDRVYKLALDKPGYGVFSTTRLPEREKLFKWIGPLGSYDWIMLARGDSPITLASLEQAKDYRIGAYKGDAIGERLNAMGLNPILMLRDRDNVKKLANGQIDLWAVGDPVGRYLAKLEGVSGFKTALRFNSAELYLAVNKSTPDEIVNRLQAALDQMRTEGWVDAVKARYQLEHHHHHH”, the protein production result is listed as “not failed”.
Regarding “MHSDALSWGHGPRLFEVFLEPTCPFSVKAFFKLDDLLAQAGEDNVTVRIRLQSQPWHMFSGVIVRCILAAATLEGGKESAKAVMTAVASHREEFEFEHHAGGPNLDATPNDIIARIERYSGLALAEAFANPELEHAVKWHTKYARQNGIHVSPTFMINGLVQPGMSSGDPVSKWVSDIG”, the protein production entry is on record as “not failed”.
For “MHSGLNPQDIAFLKTIIAFFFLSVFLFKVPVSQKIAYISSTPSKLSVFTQIAICAFLGIFSLFFFETIAYNHGAAANVVVVLMASAAISALFFGRLILKESIYINSLIGTLLAVAGISIISWKGENSLLMLINASIAGTGYGLFSVLVKKFKLNGGLFLTKYLLLFGSVYLAVPFLVNLHAIHFNIDIVLGLIGLAVLPTILGFFCTTKALSYMSAAKVQVTELSEPIFAALMAWVFIHEQPTLSFLYGAIFIISGIFVMNRAPKSN”, the protein production entry is recorded as “failed”.
For the sequence “MHSIQSPRLRQHFPRRSPKKLALKKSGGLGHRAKASHCYRIVLYSHDTMGLGHKRRNLLIAQTLQKSRLPVEILVITGIEEGNEALTAAGINYVNLPSLRKNGDGSYSGRDLDLPLEKLIAWRSQLILKTIQQFQPDVLMVDNVPRGVERELDPSLKYLRQRPESLCVLGLRDILDQPGTVQRDWGQADNERAIRRYYDAVWVYGDPQVYDLRHEYGFAPDVTAKMRPLGYFHQGDRLQHLTKPWQETLSNWKLPSRFILGAVGGGQDGETLAIAFAQIPFTADLPGVLLTGPFMPESVRQKLKVSAQNNPDLTILPYFSEPTMLMWAAERVITMGGYNTTCEILSFQKPALIIPRIKPRQEQWLRATRLKQLGLVDVLHPDQVNAQNLTAWLHSAPTNQYNKPVLNLRATQQLPLVLGQLLSTRNCFMSQAC”, the protein production result was “failed”.
To “MHSNINTLIANHRAGHALDQAFYTDAEVFQTDLQEIFYKEWLFAIPACELDKPGSYVTHQVGNYNVIIVRGADNVIRAFHNACRHRGSVICKAKKGNNPKLVCPYHQWTYELDGRLLWARDMGPDFEPSRHGLKTVHCRELAGLIYICLADEAPDFERFAEVARPYLEVHDLSNAKVAHESSIVERGNWKLVWENNRECYHCGGNHPALCRTFPDDPSVTGIEGGETPSNLQAHFDRCEQAGMPSGFHLSGDGQFRVARMPLKEGAESYTMDGKTAVRRWLGRAAFADAGSLLKFHYPTTWNHFLSDHSIVFRVTPISPTETEVTTKWLVHKDAVEGVDYDLQRLTEVWIATNDEDREVVEFNQMGINSPAYEPGPYSPTQESGVLQFVEWYLSTLKRNSGPHAVAAE” belongs “not failed”.
On to “MHSTIGRLLEQTADAYPDRDAVVYPDRNIRYTYAQFDSLCRQTAKGLMRMGIGKGDHVAIWASNISEWLAVQFATAKIGAVLVTVNTNYQAHELDYLLKQSDAAALIIMDSYRGTSYPDIVNSLIPELQEAKPGQLKSERYPFLKTLIYIGNKRLSGMYHWDDTEILAKTVTDAELEERMNSLDKDNVINMQYTSGTTGFPKGVMLTHFNVINNAANIAECMALTSQDRMCIPVPFFHCFGCVLGVLACVSVGAAMIPVQEFDPVTVLKTVEKEKCTVLHGVPTMFIAELHHPDFDAYDLSTLRTGIMAGSPCPSEVMKAVIERMGMKDITIAYGQTEASPVITQTRANDSFIRRVETTGRALPHTEVKIVEPGTCQEVQRGMQGELCTRGYHVMKGYYKDKDATRKAINHDGWLFTGDLAVMDEDGYCRITGRLKDMLIRGGENIYPREIEEFLYQHPAVLDVQVVGVPDAKFGEEAAAWIKLKDGKSVSPDELKAYCKGKIARHKIPRYVIFTDDYPMTAS”, for which the protein production result is “failed”.
Take “MHTAICDELGIEFPIFAFTHCRDVVVAVSKAGGFGVLGAVGFTPEQLEIELNWIDEHIGDHPYGVDIVIPNKYEGMDSQLSADELAKTLRSMVPQEHLDFARKILADHGVPVEDADEDSLQLLGWTEATATPQVDAALKHPKMTMVANALGTPPADMIKHIHDSGRKVAALCGSPSQARKHADAGVDIIIAQGGEAGGHCGEVGSIVLWPQVVKEVAPVPVLAAGGIGSGQQIAAALALGTQGAWTGSQWLMVEEAANTAVQQAAYVKATSRDTVRSRSFTGKPARMLRNDWTEAWEQPESPKPLGMPLQYMVSGMAVKATHKYPNETVDVAFNPVGQVVGQFTKVEKTATVIERWVQEYLEATARLDALNAAASV”: the protein production result is “failed”.
As to “MHVALNQTMPDDVQGTVATIYTSSEQLQLFAFEAEVNENFEMAAAYYKERLVREPQNLDHWLDYGAFCLLTEDNIKAQECFQKALSLNQSHIHSLLLCGVLAVLLENYEQAEIFFEDATCLEPTNVVAWTLLGLYYEIQNNDIRMEMAFHEASKQLQARMLQAQVTKQKSTGVEDTEERGKRESSLGPWGITNGSATAIKVEAPAGPGAALSILDKFLEESSKLQSDSQEPILTTQTWDPSISQKPSNTFIKEIPTKKEASKCQDSSALLHPGLHYGVSQTTTIFMETIHFLMKVKAVQYVHRVLAHELLCPQGGPSCEYYLVLAQTHILKKNFAKAEEYLQQAAQMDYLNPNVWGLKGHLYFLSGNHSEAKACYERTISFVVDASEMHFIFLRLGLIYLEEKELEELTEAEDALSEANALNNYNAEVWAYLALVCLKVGRQLEAEQAYKYMIKLKLKDEALLAEIHTLQETVGFGNPSF”, the protein production entry is listed as “failed”.
Take “MHVAVRRSNTPHPLSSLRHDIVIEPLEEERPPSRFGYDMAGKALSVQPTIDPSAKLHETRLGAYTEVGARTILHEVTMGDYSYVVNDSQITYTTIGKFCSIAAMTRINPGNHPMHRATQAHFTYRSSAYFPGESDDTEFFDWRRQHHVHIGHDVWIGHGAIVLPGRNIGTGAVIAAGAIVTKDVPAYTIVAGNPARIVRRRFSEEIAGRLARLAWWDWDHDKLREALPDFRRLGIEDFLSTYEARAHSPVSKRSAVA”: the protein production result is listed as “failed”.
Turning to “MHVISTSKKTVLSDFADLETKSEYVHQNAEPTDFQFNGQRRVFVEVDKMAGLAVMRIKEKDGKTPEIQRVRKLTIDNAFCVACAKQSLEEIAVGQSGCVKLYNFRTAQLIHRFPADPQRSTVLYMDYNNTDEYIAAVRDGGDISILGTKTKQKTNTFTIDGDSTLVRFHPSKRFHLSIASYKGAVTVYDVQGMRKIFHASEAHSAPCRDISMCTSQPALLVSVGYDCKINIFDIRRNRAQASTDRLTYSHPLSTVALSECGTYLCAGNLKGELIAYDMRSTKAPLAVRSVHDAAVTRVAFVPVPSGDNQQNGSLNSSENATGLATEAPRVERAPSDELRKSIAANLLSTQNQLTSLGYGVSTPTIVRRDSFCEFLDAQGPRAVDRMSTRLGASYRDSFDWETLNRKPQPYETANRQSLCPPVASGPSSVDNSVNSSTTESLQQTLSGPLKDRSNISGDGKLMKIAETDELCEEQSANISVASSTGGGSDKENPPPVDAEMKRRLRLLSASRNSTPHHANITPQSSNPLLKPQQLLAKSSSGLSAQMDADWRKEFSELRDFVDQRCEKVERELEYVTFSNQRLLANKMTNYMDQQVENTREIRDALALLLQGDSFMREFSRLQNENEMLKAKLKFYQEQEQTESCGE”, the protein production entry is listed as “failed”.
